From patent publication US20170008928A1, “NOVEL PEPTIDES AND PEPTIDE DERIVATIVES AND USES THEREOF” (Novo Nordisk A/S, priority 2015, published 2017) come the findings set out here.

Broadly, the EC50 is the concentration that produces a half-maximal response.

Experiment [1] addresses T1, human cholecystokinin-2 receptor (human, UniProt P32239 1-447).
T1 sequence (looked up): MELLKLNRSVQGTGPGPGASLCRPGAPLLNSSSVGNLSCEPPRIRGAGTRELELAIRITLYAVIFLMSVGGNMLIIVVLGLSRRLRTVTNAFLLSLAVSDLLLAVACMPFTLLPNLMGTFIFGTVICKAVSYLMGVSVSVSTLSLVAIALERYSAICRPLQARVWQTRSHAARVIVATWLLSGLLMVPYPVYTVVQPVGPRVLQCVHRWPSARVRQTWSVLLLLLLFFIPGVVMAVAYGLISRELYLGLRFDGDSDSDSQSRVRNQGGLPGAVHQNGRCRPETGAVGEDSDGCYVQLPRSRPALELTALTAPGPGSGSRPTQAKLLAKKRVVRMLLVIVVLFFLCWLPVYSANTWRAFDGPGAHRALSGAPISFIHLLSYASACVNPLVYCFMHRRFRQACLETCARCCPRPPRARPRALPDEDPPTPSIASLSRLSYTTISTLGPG
As to the kind of experiment: cell-based or functional assay.

Experiment [2] has as its target T2, human cholecystokinin-2 receptor (CCK-2R) (Homo sapiens, UniProt P32239).
T2 construct: host or cells: 1321-N1 cells (plasma membranes prepared by Evotec AG Hamburg)
T2 sequence (P32239 1-447): T1 sequence (looked up)
In words: In vitro potency on CCK-2R, whole cell functional assay (IP1 accumulation, IP-One HTRF). The format is cell-based.

Where [3] appears, read: 1321-N1 cells stably expressing CCK-2R, IP1 accumulation, highest dose tested 1×10^6 pM, read-out: EC50 (CCK-2R).

Read-outs that look alike come from different tables or passages of the source. Starred links: 1 amine or outer side, 2 acyl side, 3 side chain; linkers in the order of their positions; H or OH if unused. Non-standard residues stand in square brackets, D forms with d. Residues, ends and D or L forms follow the SMILES beside them. No end group written: not given here. *: point of attachment. sY = N[C@@H](Cc1ccc(OS(=O)(=O)O)cc1)C(=O)O; C18 diacid = O=C(O)CCCCCCCCCCCCCCCCC(=O)*; C16 diacid = O=C(O)CCCCCCCCCCCCCCC(=O)*; γGlu = O=C(O)[C@H](CCC(=O)[*:2])N[*:1]; C14 diacid = O=C(O)CCCCCCCCCCCCC(=O)*; NMeF = CN[C@@H](Cc1ccccc1)C(=O)O; dNMeD = CN[C@H](CC(=O)O)C(=O)O; Nle = CCCC[C@H](N)C(=O)O; AEEA = NCCOCCOCC(=O)O

Molecule “2-[2-[2-[[2-[2-[2-[[(4S)-4-Carboxy-4-(13-carboxytridecanoylamino)butanoyl]amino]ethoxy]ethoxy]acetyl]amino]ethoxy]ethoxy]acetyl-Asp-Phe(4-sulfomethyl)-Leu-Gly-Trp-Nle-DMeAsp-MePhe-amide (peptide)” registered an EC50 (CCK-2R) in experiment [1] above 1000 nM.

For “2-[2-[2-[[2-[2-[2-[[(4S)-4-Carboxy-4-(15-carboxypentadecanoylamino)butanoyl]amino]ethoxy]ethoxy]acetyl]amino]ethoxy]ethoxy]acetyl-Asp-Phe(4-sulfomethyl)-Leu-Gly-Trp-Nle-DMeAsp-MePhe-amide (peptide)”, the EC50 (CCK-2R) in experiment [1] is above 1000 nM.

Regarding “2-[2-[2-[[2-[2-[2-[[(4S)-4-Carboxy-4-(17-carboxyheptadecanoylamino)butanoyl]amino]ethoxy]ethoxy]acetyl]amino]ethoxy]ethoxy]acetyl-Asp-Phe(4-sulfomethyl)-Nle-Gly-Trp-Nle-DMeAsp-MePhe-amide (peptide)”, the EC50 (CCK-2R) in experiment [1] was above 1000 nM.

In the case of “2-[2-[2-[[2-[2-[2-[[(4S)-4-Carboxy-4-(17-carboxyheptadecanoylamino)butanoyl]amino]ethoxy]ethoxy]acetyl]amino]ethoxy]ethoxy]acetyl-DAsp-Phe(4-sulfomethyl)-Nle-Gly-Trp-Nle-DMeAsp-MePhe-amide (peptide)”, the EC50 (CCK-2R) in experiment [1] was above 1000 nM.

For “2-[2-[2-[[2-[2-[2-[[(4S)-4-Carboxy-4-(17-carboxyheptadecanoylamino)butanoyl]amino]ethoxy]ethoxy]acetyl]amino]ethoxy]ethoxy]acetyl-DbAsp-Phe(4-sulfomethyl)-Nle-Gly-Trp-Nle-DMeAsp-MePhe-amide (peptide)”, in experiment [1], the EC50 (CCK-2R) was above 1000 nM.

Turning to “2-[2-[2-[[2-[2-[2-[[(4S)-4-Carboxy-4-(17-carboxyheptadecanoylamino)butanoyl]amino]ethoxy]ethoxy]acetyl]amino]ethoxy]ethoxy]acetyl-bAsp-Phe(4-sulfomethyl)-Nle-Gly-Trp-Nle-DMeAsp-MePhe-amide (peptide)”, in experiment [1], the EC50 (CCK-2R) was above 1000 nM.

Take “2-[2-[2-[[2-[2-[2-[[(4S)-4-Carboxy-4-(19-carboxynonadecanoylamino)butanoyl]amino]ethoxy]ethoxy]acetyl]amino]ethoxy]ethoxy]acetyl-Asp-Phe(4-sulfomethyl)-Leu-Gly-Trp-Nle-DMeAsp-MePhe-amide (peptide)”: the EC50 (CCK-2R) in experiment [1] was above 1000 nM.

Regarding `CCCC[C@H](NC(=O)[C@H](Cc1ccc(OS(=O)(=O)O)cc1)NC(=O)[C@H](CC(=O)O)NC(=O)COCCOCCNC(=O)COCCOCCNC(=O)CC[C@H](NC(=O)CCCCCCCCCCCCCCCCC(=O)O)C(=O)O)C(=O)NCC(=O)N[C@@H](Cc1c[nH]c2ccccc12)C(=O)N[C@@H](CCCC)C(=O)N(C)[C@H](CC(=O)O)C(=O)N[C@@H](Cc1c[nH]c2ccccc12)C(N)=O` [Example 1, 2-[2-[2-[[2-[2-[2-[[(4S)-4-Carboxy-4-(17-carboxyheptadecanoylamino)butanoyl]amino]ethoxy]ethoxy]acetyl]amino]ethoxy]ethoxy]acetyl-Asp-sTyr-Nle-Gly-Trp-Nle-DMeAsp-Trp-amide] ({C18 diacid-γGlu-AEEA-AEEA}-D[sY][Nle]GW[Nle][dNMeD]W-NH2), the half-maximal effective concentration (EC50) in experiment [2] (setting [3]) is above 1000 nM.

In experiment [2], `CCCC[C@H](NC(=O)[C@H](Cc1c[nH]c2ccccc12)NC(=O)CNC(=O)[C@H](CC(C)C)NC(=O)[C@H](Cc1ccc(OS(=O)(=O)O)cc1)NC(=O)[C@H](CC(=O)O)NC(=O)COCCOCCNC(=O)COCCOCCNC(=O)CC[C@H](NC(=O)CCCCCCCCCCCCCCCCC(=O)O)C(=O)O)C(=O)N(C)[C@H](CC(=O)O)C(=O)N(C)[C@@H](Cc1ccccc1)C(N)=O` [Example 9, 2-[2-[2-[[2-[2-[2-[[(4S)-4-Carboxy-4-(17-carboxyheptadecanoylamino)butanoyl]amino]ethoxy]ethoxy]acetyl]amino]ethoxy]ethoxy]acetyl-Asp-sTyr-Leu-Gly-Trp-Nle-DMeAsp-MePhe-amide] had an EC50 of 170 nM.

Consider `CCCC[C@H](NC(=O)[C@H](Cc1c[nH]c2ccccc12)NC(=O)CNC(=O)[C@H](CC(C)C)NC(=O)[C@H](Cc1ccc(OS(=O)(=O)O)cc1)NC(=O)[C@H](CCC(=O)O)NC(=O)COCCOCCNC(=O)COCCOCCNC(=O)CC[C@H](NC(=O)CCCCCCCCCCCCC(=O)O)C(=O)O)C(=O)N(C)[C@H](CC(=O)O)C(=O)N(C)[C@@H](Cc1ccccc1)C(N)=O` [Example 36, 2-[2-[2-[[2-[2-[2-[[(4S)-4-Carboxy-4-(13-carboxytridecanoylamino)butanoyl]amino]ethoxy]ethoxy]acetyl]amino]ethoxy]ethoxy]acetyl-Glu-sTyr-Leu-Gly-Trp-Nle-DMeAsp-MePhe-amide] ({C14 diacid-γGlu-AEEA-AEEA}-E[sY]LGW[Nle][dNMeD][NMeF]-NH2), for which, in experiment [2] (setting [3]), the EC50 was 150 nM.

With `CCCC[C@H](NC(=O)[C@H](Cc1c[nH]c2ccccc12)NC(=O)CNC(=O)[C@H](CC(C)C)NC(=O)[C@H](Cc1ccc(OS(=O)(=O)O)cc1)NC(=O)[C@H](CCC(=O)O)NC(=O)COCCOCCNC(=O)COCCOCCNC(=O)CC[C@H](NC(=O)CCCCCCCCCCCCCCC(=O)O)C(=O)O)C(=O)N(C)[C@H](CC(=O)O)C(=O)N(C)[C@@H](Cc1ccccc1)C(N)=O` [Example 39, 2-[2-[2-[[2-[2-[2-[[(4S)-4-Carboxy-4-(15-carboxypentadecanoylamino)butanoyl]amino]ethoxy]ethoxy]acetyl]amino]ethoxy]ethoxy]acetyl-Glu-sTyr-Leu-Gly-Trp-Nle-DMeAsp-MePhe-amide] ({C16 diacid-γGlu-AEEA-AEEA}-E[sY]LGW[Nle][dNMeD][NMeF]-NH2), in experiment [2] (setting [3]), the concentration giving a half-maximal response (EC50) came to 110 nM.

As to `CCCC[C@H](NC(=O)[C@H](Cc1c[nH]c2ccccc12)NC(=O)CNC(=O)[C@H](Cc1c[nH]cn1)NC(=O)[C@H](Cc1ccc(OS(=O)(=O)O)cc1)NC(=O)[C@H](CC(=O)O)NC(=O)COCCOCCNC(=O)COCCOCCNC(=O)CC[C@H](NC(=O)CCCCCCCCCCCCCCCCC(=O)O)C(=O)O)C(=O)N(C)[C@H](CC(=O)O)C(=O)N(C)[C@@H](Cc1ccccc1)C(N)=O` [Example 48, 2-[2-[2-[[2-[2-[2-[[(4S)-4-Carboxy-4-(17-carboxyheptadecanoylamino)butanoyl]amino]ethoxy]ethoxy]acetyl]amino]ethoxy]ethoxy]acetyl-Asp-sTyr-His-Gly-Trp-Nle-DMeAsp-MePhe-amide] ({C18 diacid-γGlu-AEEA-AEEA}-D[sY]HGW[Nle][dNMeD][NMeF]-NH2), the EC50 in experiment [2] (setting [3]) is above 1000 nM.

As to `CCCC[C@H](NC(=O)[C@H](Cc1c[nH]c2ccccc12)NC(=O)CNC(=O)[C@H](CC(C)C)NC(=O)[C@H](Cc1ccc(OS(=O)(=O)O)cc1)NC(=O)[C@@H](CCC(=O)O)NC(=O)COCCOCCNC(=O)COCCOCCNC(=O)CC[C@H](NC(=O)CCCCCCCCCCCCCCCCC(=O)O)C(=O)O)C(=O)N(C)[C@H](CC(=O)O)C(=O)N(C)[C@@H](Cc1ccccc1)C(N)=O` [Example 49, 2-[2-[2-[[2-[2-[2-[[(4S)-4-Carboxy-4-(17-carboxyheptadecanoylamino)butanoyl]amino]ethoxy]ethoxy]acetyl]amino]ethoxy]ethoxy]acetyl-DGlu-sTyr-Leu-Gly-Trp-Nle-DMeAsp-MePhe-amide] ({C18 diacid-γGlu-AEEA-AEEA}-[dE][sY]LGW[Nle][dNMeD][NMeF]-NH2), the EC50 in experiment [2] (setting [3]) is 46 nM.

For the molecule `CCCC[C@H](NC(=O)[C@H](Cc1c[nH]c2ccccc12)NC(=O)CNC(=O)[C@H](CC(C)C)NC(=O)[C@H](Cc1ccc(OS(=O)(=O)O)cc1)NC(=O)[C@@H](N)CC(=O)O)C(=O)N(C)[C@H](CC(=O)O)C(=O)N(C)[C@@H](Cc1ccccc1)C(N)=O` [Example 60, Asp-sTyr-Leu-Gly-Trp-Nle-DMeAsp-MePhe-amide], in experiment [2] (setting [3]), the EC50 turned out to be 380 nM.

The molecule “Asp-Phe(4-sulfomethyl)-Leu-Gly-Trp-Nle-DMeAsp-MePhe-amide (peptide)” showed an EC50 (CCK-2R) in experiment [1] above 1000 nM.

Consider “Asp-sTyr-His-Gly-Trp-Nle-DMeAsp-MePhe-amide (peptide)”, for which the EC50 (CCK-2R) in experiment [1] is above 1000 nM.

“Asp-sTyr-Ile-Gly-Trp-Nle-DMeAsp-MePhe-amide (peptide)” registered an EC50 (CCK-2R) in experiment [1] above 1000 nM.

Take “Asp-sTyr-Leu-Gly-Trp-Nle-DMeAsp-Phe-amide (peptide)”: in experiment [1], the EC50 (CCK-2R) was above 1000 nM.

In experiment [1], “Asp-sTyr-Nle-Gly-Trp-Nle-DMeAsp-MePhe-amide (peptide)” yielded an EC50 (CCK-2R) above 1000 nM.

“Asp-sTyr-Pro-Gly-Trp-Nle-DMeAsp-MePhe-amide (peptide)” came in with an EC50 (CCK-2R) in experiment [1] above 1000 nM.

As for “DGlu-sTyr-Leu-Gly-Trp-Nle-DMeAsp-MePhe-amide (peptide)”, in experiment [1], the EC50 (CCK-2R) was above 1000 nM.

In the case of “Glu-sTyr-Leu-Gly-Trp-Nle-DMeAsp-MePhe-amide (peptide)”, the EC50 (CCK-2R) in experiment [1] was found to be 920 nM.

B1: Glu-sTyr-Leu-Gly-Trp-Nle-DMeAsp-Phe-amide (peptide)
peptide: E[sY]LGW[Nle][dNMeD]F-NH2
modifications: N-terminus assumed
SMILES: CCCC[C@H](NC(=O)[C@H](Cc1c[nH]c2ccccc12)NC(=O)CNC(=O)[C@H](CC(C)C)NC(=O)[C@H](Cc1ccc(OS(=O)(=O)O)cc1)NC(=O)[C@@H](N)CCC(=O)O)C(=O)N(C)[C@H](CC(=O)O)C(=O)N[C@@H](Cc1ccccc1)C(N)=O
notes: X = Nle or Nal
Regarding B1, the EC50 (CCK-2R) in experiment [1] is above 1000 nM.

Regarding {C18 diacid-γGlu-AEEA-AEEA}-E[sY]LGWQ[dNMeD]F-NH2, the “EC50 (CCK-2R)” value in experiment [1] is above 1000 nM.

As for E[sY]LGWQ[dNMeD]F-NH2 [Glu-sTyr-Leu-Gly-Trp-Gln-DMeAsp-Phe-amide], in experiment [1], the “EC50 (CCK-2R)” value was above 1000 nM.
